Measurements: patent US10000771B2, “Nuclear targeting sequences” (Yeda Research and Development Co. Ltd., priority 2007, dated 2018)
Each block holds one molecule with its values, some of them ahead of it.

Columns and labels:
[1] = test system: CHO cells; experiment: Microscopy of MEK1-GFP constructs (subcellular localization); format: cell-based
Description: FIGS. 14A-14R are photomicrographs illustrating that the NTS motif regulates MEK1 shuttling into the nucleus. CHO cells overexpressing WT-GFP-MEK1 (WT), AAA-GFP-MEK1 (AAA-MEK) and EPE-GFP-MEK1 (EPE-MEK) were starved for 16 hr and treated with LMB (5 ng/ml, 1 hr; LMB), LMB (5 ng/ml, 1 hr)+TPA (250 nM, 15 min; LMB+TPA) or left un treated (NT). Subsequently the cells were fixed, stained with DAPI and visualized by a fluorescent microscope.
Immunofluorescence Microscopy. Cells were fixed (30 min in 3% paraformaldehyde in PBS or 10 min with ice-cold methanol), followed by 5-min permeabilization with 0.2% Triton X-100 in PBS (23° C.). The fixed cells were sequentially incubated with the appropriate Abs (45 min) followed by rhodamine-conjugated secondary Abs (45 min) and DAPI. Slides were visualized using a fluorescence microscope (Nikon, Japan) at 400× magnifications.
Other proteins that translocate into the nucleus upon stimulation are the MEKs [H. Jaaro, H. Rubinfeld, T. Hanoch, R. Seger, Proc. Natl. Acad. Sci. USA 94, 3742 (1997)]. […] This TPT sequence was also shown to be phosphorylated upon cellular stimulation [S. Matsuda, Y. Gotoh, E. Nishida, J Biol Chem 268, 3277 (Feb. 15, 1993)], and to be involved in protein-protein interaction that can determine subcellular localization [A. Nantel, K. Mohammad-Ali, J. Sherk, B. I. Posner, D. Y. Thomas, J Biol Chem 273, 10475 (Apr. 24, 1998). […]

[2] = test system: SPS domain; experiment: SPS phosphorylation detected by anti pSPS Ab Western blot; format: cell-based; details: COS7 cells, stimulated with VOOH, TPA, EGF or TGFβ, immunoprecipitation and Western blot
Description: (§1) FIGS. 4A-4I are autoradiographs characterizing SPS phosphorylation using an Ab to the phosphorylated SPS domain. FIG. 4A illustrates an elevation of pSPS detection upon stimulation. COS cells were transfected with WT-GFP-ERK2. Twenty-four hr after transfection, the cells were serum-starved for 16 hr and subsequently treated with the general stimulator VOOH (V, 100 μM Na3VO4 and 200 μM H2O2, 15 min), TPA (T, 250 nM, 15 min), EGF (E, 50 ng/ml for 15 min), or left untreated (NT). The GFP-ERK2 was immunoprecipitated with anti GFP Ab, extensively washed, and the IP was then subjected to Western blotting with anti phospho SPS-ERK (αphoSPS-ERK) and anti general ERK (αgen-ERK) Abs. FIG. 4B is a time course of SPS phosphorylation. COS7 cells overexpressing WT-GFP-ERK2 were serum starved followed by EGF stimulation for the indicated time points. The lysates were then subjected to Western blot analysis as in FIG. 4A. […] SPS phosphorylation was detected using the anti pSPS Abs, and this was compared to the amount of genral ERKs detected by αgERK. […] SPS-phosphorylation was detected using αpSPS and αgERK Abs. […] The phosphorylation (^32P-ERK2) of ERK and its mutants was detected by autoradiography. […]
FIG. 9B is an autoradiograph illustrating that stimulation elevates pSPS phosphorylation of 2GFP-SPS construct. […] The total amount of immunoprecipitated 2GFP-SPS was detected with αGFP Ab. […]

[3] = biological target: T1, Act-GST-ERK2 (Rattus norvegicus, UniProt P63086); experiment: In vitro kinase assay with active GST-ERK2; format: biochemical; details: immunoprecipitated protein as substrate, relative to GFP-ERK2
T1 construct: made in house; host or cells: bacteria co-expressing active MEK1
T1 sequence (P63086 whole entry): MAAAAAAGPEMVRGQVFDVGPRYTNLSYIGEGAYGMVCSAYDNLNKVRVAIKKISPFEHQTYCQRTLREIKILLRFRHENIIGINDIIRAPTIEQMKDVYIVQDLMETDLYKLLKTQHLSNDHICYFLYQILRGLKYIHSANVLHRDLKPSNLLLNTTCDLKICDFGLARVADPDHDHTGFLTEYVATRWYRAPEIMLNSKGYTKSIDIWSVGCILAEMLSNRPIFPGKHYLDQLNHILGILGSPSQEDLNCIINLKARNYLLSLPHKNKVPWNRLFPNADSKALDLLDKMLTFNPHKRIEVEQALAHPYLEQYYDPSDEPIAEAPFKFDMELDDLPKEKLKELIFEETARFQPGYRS
Description: as §1, with “phosphorylation.” for “phosphorylation. COS7 cells overexpressing WT-GFP-ERK2 were serum starved followed by EGF stimulation for the indicated time points. The lysates were then subjected to Western blot analysis as in FIG. 4A.”
Some protein kinases downstream of MEKs that may be involved in the SPS phosphorylation are ERKs themselves (autophosphorylation) as their consensus phosphorylation site includes Ser/Thr followed by a Pro (Yoon and Seger, 2006, Growth Factors, 24, 21-44). […] As expected, ^32P incorporation to GFP-ERK2 was detected mainly when this protein was incubated with Act-ERK2. […]

B1: AAA-MEK1: GFP-MEK1 with residues 386-8 (TPT) replaced with Ala (protein, UniProt Q02750 1-393, looked up, variant T386A P387A T388A)
Dual specificity …: MPKKKPTPIQLNPAPDGSAVNGTSSAETNLEALQKKLEELELDEQQRKRLEAFLTQKQKVGELKDDDFEKISELGAGNGGVVFKVSHKPSGLVMARKLIHLEIKPAIRNQIIRELQVLHECNSPYIVGFYGAFYSDGEISICMEHMDGGSLDQVLKKAGRIPEQILGKVSIAVIKGLTYLREKHKIMHRDVKPSNILVNSRGEIKLCDFGVSGQLIDSMANSFVGTRSYMSPERLQGTHYSVQSDIWSMGLSLVEMAVGRYPIPPPDAKELELMFGCQVEGDAAETPPRPRTPGRPLSSYGMDSRPPMAIFELLDYIVNEPPPKLPSGVFSLEFQDFVNKCLIKNPAERADLKQLMVHAFIKRSDAEEVDFAGWLCSTIGLNQPSAAAHAAGV
modifications: GFP fusion
notes: GFP-MEK1 with residues 386-8 (TPT) replaced with Ala
nuclear accumulation after TPA stimulation ([1]; LMB 5 ng/ml + TPA 250 nM, 15 min): localized in the cytoplasm | nuclear translocation after leptomycin B ([1]; LMB 5 ng/ml, 1 hr): abrogated

reduction of phosphorylation (32P incorporation) by Act-ERK2 [3]: ~25%
B2: TEY-AAA: TEY mutated ERK2 that does not contain phosphates in this site (protein)
chain: MAAAAAAGPEMVRGQVFDVGPRYTNLSYIGEGAYGMVCSAYDNLNKVRVAIKKISPFEHQTYCQRTLREIKILLRFRHENIIGINDIIRAPTIEQMKDVYIVQDLMETDLYKLLKTQHLSNDHICYFLYQILRGLKYIHSANVLHRDLKPSNLLLNTTCDLKICDFGLARVADPDHDHTGFLAAAVATRWYRAPEIMLNSKGYTKSIDIWSVGCILAEMLSNRPIFPGKHYLDQLNHILGILGSPSQEDLNCIINLKARNYLLSLPHKNKVPWNRLFPNADSKALDLLDKMLTFNPHKRIEVEQALAHPYLEQYYDPSDEPIAEAPFKFDMELDDLPKEKLKELIFEETARFQPGYRS
modifications: left off: large carriers
SPS phosphorylation upon stimulation (anti pSPS Ab recognition) [2]: can still be recognize by the anti phosphoSPS Ab upon stimulation
